For the assay, the target named is soluble, recombinant SUDV GP (Boniface variant), residues 33-649 (Sudan ebolavirus (Boniface variant), UniProt Q66814).

Changes are numbered by the printed parent chain.

B1: 31C7 (antibody, V domains shown)
VH: EVQLVESGGGLVQPGGSLRLSCAASGFAFNYYDMFWVRQAPGKGLEWVAYINPGGGNTYYADSVKGRFTISADTSKNTAYLQMNSLRAEDTAVYYCARQLYGNSFLDYWGQGTLVTV
VL: DIQMTQSPSSLSASVGDRVTITCKASQDVTTAVAWYQQKPGKAPKLLIYWASSRYPGVPSRFSGSGSGTDFTLTISSLQPEDFATYYCQQHYSTPLTFGQGTKVEI
As for B1, the binding result is “binds”.

B2: 51B6 (antibody, V domains shown)
VH: B1 VH with M34L, F35Y, A61P, L106F
VL: B1 VL with S53T, Y55H, P56T
As to B2, the binding result is listed as “binds”.

B3: 34F5 (antibody, V domains shown)
VH: B1 VH with P53S, A61P, L106F
VL: B1 VL with S53A, Y55H, P56R
As to B3, the binding result is “binds”.

B4: 35B5 (antibody, V domains shown)
VH: B1 VH with P53S, A61P, L106F
VL: B1 VL with S53T, Y55H, P56T
Regarding B4, the binding result was “binds”.

Source of the values: PMC4201348 (ACS Chemical Biology, 2014).
